According to patent US20250019432A1 (MABLYTICS, published 2025):

Legend:
[1] = molecular target: T1, S9ecto-Fc (human siglec9 ectodomain fused with human Fc domain) (human, UniProt Q9Y336 18-348); assay: ELISA
T1 construct: extracellular domain; bought from R&D Systems; not shown: human Fc domain
Method: (§1) Fusion proteins of human siglec7 or siglec9 ectodomains fused with human Fc domains (R&D Systems, Minneapolis, MN) were immobilized on assay plates and incubated with media from hybridoma cultures described above before detection of bound antibodies using anti-mouse (heavy/light) secondary antibody conjugated to HRP. Levels of bound secondary antibody were assessed by applying colorimetric substrate and measuring absorbance values at 450 nm.

[2] = molecular target: T2, S7ecto-Fc (human siglec7 ectodomain fused with human Fc domain) (human, UniProt Q9Y286 19-353); assay: ELISA
T2 construct: extracellular domain; bought from R&D Systems; not shown: human Fc domain
Method: as §1

S12-C2 = molecular target: T3, S12-C2 (human, UniProt Q96PQ1 1-481); assay: ELISA
T3 construct: also called siglec12 C2set2 region
T3 sequence: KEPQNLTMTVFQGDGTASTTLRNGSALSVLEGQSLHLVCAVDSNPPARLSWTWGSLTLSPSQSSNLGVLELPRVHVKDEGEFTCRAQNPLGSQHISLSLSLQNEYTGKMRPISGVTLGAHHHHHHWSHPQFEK
Method: (§2) For ELISA assays, purified subdomain proteins were passively immobilized on assay plates and incubated with media from hybridoma cultures described above before detection of bound anti-subdomain antibodies using anti-mouse (heavy/light) secondary antibody conjugated to horseradish peroxidase (HRP). Levels of bound secondary antibody were assessed by applying colorimetric substrate and measuring absorbance values at 450 nm. Absorbance values greater than 0.07 indicate specific binding.

S12-V1 = molecular target: T4, S12-V1 (human); assay: ELISA
T4 construct: also called siglec12 Vset1 region
Method: as §2

[3] = molecular target: T5, siglec8 with C-terminal FLAG tag on Expi 293 cells (UniProt Q9NYZ4 17-499, limits assumed); assay: flow cytometry, transfected Expi 293, 500 nM
T5 construct: whole, on cells; not shown: C-terminal FLAG tag
Method: (§3) To verify anti-siglec12 antibody specificity for native siglec12 (over other siglec family members), cross-reactivity analysis was carried out using flow cytometry. Expi 293 cells were grown in 6 well plates and transfected with […] of pcDNA3.1 expression vectors (Thermo Fisher Scientific, Waltham, MA) with inserts encoding siglec6, siglec7, siglec8, siglec9, or siglec12 proteins with C-terminal FLAG tags. The following day, Expi293 enhancers were added. On day 2 (post-transfection) cells were washed in PBSB and aliquoted into plastic V-bottomed plates at a density of 5×10⁵ cells/well. An aliquot was also used for Western blot analysis to confirm siglec expression (using anti-FLAG antibody as described below). Plated cells were incubated with anti-siglec12 antibodies at a concentration of 500 nM or siglec-specific control antibody (all from R&D Systems, Minneapolis, MN; Siglec6-specific clone 767329; Siglec8-specific clone 837535; Siglec9-specific clone 191240) at a concentration of 12.5 μg/mL for 2 hours on ice. Cells were then washed with ice cold PBSB and incubated with PE-goat anti mouse H/L chain secondary antibody (1:400 in PBSB) for 30 minutes on ice. Cells were again washed with ice cold PBSB and analyzed for surface staining based on fluorescence intensity determined by GUAVA® […]™ Plus flow cytometer.

[4] = molecular target: T6, siglec7 with C-terminal FLAG tag on Expi 293 cells (UniProt Q9Y286 19-467, limits assumed); assay: flow cytometry, transfected Expi 293, 500 nM
T6 construct: whole, on cells; not shown: C-terminal FLAG tag
Method: as §3

[5] = molecular target: T7, siglec9 with C-terminal FLAG tag on Expi 293 cells (UniProt Q9Y336 18-463, limits assumed); assay: flow cytometry, transfected Expi 293, 500 nM
T7 construct: whole, on cells; not shown: C-terminal FLAG tag
Method: as §3

[6] = molecular target: T8, S12-Fc (human siglec12 extracellular domain fused with mouse Fc2a fragment) (human; mouse); assay: ELISA
T8 construct: also called S12ecto-mouse Fc2a
Method: After 6 weeks of immunization, serum samples from immunized mice were screened for the presence of siglec12-specific immunoglobulins. Screening was carried out by enzyme-linked immunosorbent assay (ELISA) and by fluorescence-associated cell sorting (FACS). ELISA assays utilized assay plates coated with S12-Fc target antigen for immobilization of siglec12-specific immunoglobulins from mouse serum samples, which were detected using anti-mouse light chain (kappa and lambda) secondary antibody conjugated to horseradish peroxidase (HRP). The level of bound secondary antibody was assessed by incubation with colorimetric peroxidase substrate followed by measurement of light absorbance intensity values obtained at 450 nm. For FACS analysis, serum samples were combined with U937 cells (Fc receptor blocked with 10% human serum), an AML cell line that overexpresses human siglec12. Immunoglobulin binding to siglec12 associated with these cells is a strong indicator of potential immunotherapeutic use to treat AML. Anti-mouse heavy chain fluorescent detection reagents were used to label cell surface-bound serum immunoglobulins before FACS analysis. Lymph node and spleen cells from the three best responders were harvested and fused with P3X63Ag8.653 mouse myeloma cells. After 10-14 days of selection, the resulting hybridoma library was single-cell cloned into 96-well culture plates using FACS. After 10-14 days of single cell expansion, all monoclonal hybridoma culture supernatants were screened for S12-Fc binding immunoglobulins by ELISA. Supernatant positive for S12-Fc-binding immunoglobulins was further screened by FACS for immunoglobulin binding to U937 cells. The Table includes an antibody identification number (ID #) assigned to siglec12-binding antibodies associated with each hybridoma culture. For ELISA results, background adjusted mean absorbance values obtained at 450 nm are shown. For FACS analysis, Flow Fluor MFI is the mean fluorescence intensity from flow cytometry assay (background MFI=100) and flow % gated is the percentage of cells having greater than background fluorescence.

S12-V2C1 = molecular target: T9, S12-V2C1 (human, UniProt Q96PQ1 1-358); assay: ELISA
T9 construct: also called siglec12 Vset2-C2set1 region
Method: as §2

[7] = molecular target: T2, S7ecto-Fc (human siglec7 ectodomain …); assay: ELISA; remark: listed apart in the source

T7 sequence (Q9Y336 18-463 limits assumed): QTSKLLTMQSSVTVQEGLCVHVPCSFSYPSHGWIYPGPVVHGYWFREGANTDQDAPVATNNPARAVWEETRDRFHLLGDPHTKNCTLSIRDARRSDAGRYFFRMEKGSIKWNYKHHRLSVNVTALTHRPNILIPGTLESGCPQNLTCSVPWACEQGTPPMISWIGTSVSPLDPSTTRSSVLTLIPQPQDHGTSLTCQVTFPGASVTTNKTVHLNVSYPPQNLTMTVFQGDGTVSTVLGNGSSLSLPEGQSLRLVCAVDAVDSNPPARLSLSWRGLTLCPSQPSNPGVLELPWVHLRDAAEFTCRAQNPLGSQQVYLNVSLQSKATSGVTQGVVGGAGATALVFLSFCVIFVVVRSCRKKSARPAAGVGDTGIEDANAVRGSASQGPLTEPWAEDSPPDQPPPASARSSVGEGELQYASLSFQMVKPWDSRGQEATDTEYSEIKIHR
T5 sequence (Q9NYZ4 17-499 limits assumed): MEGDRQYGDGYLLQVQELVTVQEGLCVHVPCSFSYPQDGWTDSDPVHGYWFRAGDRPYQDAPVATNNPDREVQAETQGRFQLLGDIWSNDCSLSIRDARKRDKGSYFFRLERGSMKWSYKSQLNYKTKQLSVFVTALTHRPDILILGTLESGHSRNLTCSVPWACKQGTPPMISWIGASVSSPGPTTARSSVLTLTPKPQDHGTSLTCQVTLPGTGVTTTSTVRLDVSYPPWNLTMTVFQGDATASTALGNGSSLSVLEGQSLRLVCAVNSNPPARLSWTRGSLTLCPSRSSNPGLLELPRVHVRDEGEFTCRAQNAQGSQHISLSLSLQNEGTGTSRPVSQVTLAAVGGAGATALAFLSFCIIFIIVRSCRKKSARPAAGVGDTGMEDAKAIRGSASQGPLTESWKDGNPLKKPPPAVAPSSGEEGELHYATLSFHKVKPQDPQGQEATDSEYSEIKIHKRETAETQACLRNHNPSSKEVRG
T2 sequence (Q9Y286 19-353): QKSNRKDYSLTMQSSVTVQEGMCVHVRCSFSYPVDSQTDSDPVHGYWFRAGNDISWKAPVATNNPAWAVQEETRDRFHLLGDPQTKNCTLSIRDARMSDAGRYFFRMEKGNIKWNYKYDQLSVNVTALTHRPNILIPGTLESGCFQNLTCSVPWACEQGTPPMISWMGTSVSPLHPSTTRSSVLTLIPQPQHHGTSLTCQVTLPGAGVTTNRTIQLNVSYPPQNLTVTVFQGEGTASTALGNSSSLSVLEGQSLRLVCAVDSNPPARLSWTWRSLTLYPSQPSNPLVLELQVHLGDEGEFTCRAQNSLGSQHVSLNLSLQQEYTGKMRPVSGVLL
T6 sequence (Q9Y286 19-467 limits assumed): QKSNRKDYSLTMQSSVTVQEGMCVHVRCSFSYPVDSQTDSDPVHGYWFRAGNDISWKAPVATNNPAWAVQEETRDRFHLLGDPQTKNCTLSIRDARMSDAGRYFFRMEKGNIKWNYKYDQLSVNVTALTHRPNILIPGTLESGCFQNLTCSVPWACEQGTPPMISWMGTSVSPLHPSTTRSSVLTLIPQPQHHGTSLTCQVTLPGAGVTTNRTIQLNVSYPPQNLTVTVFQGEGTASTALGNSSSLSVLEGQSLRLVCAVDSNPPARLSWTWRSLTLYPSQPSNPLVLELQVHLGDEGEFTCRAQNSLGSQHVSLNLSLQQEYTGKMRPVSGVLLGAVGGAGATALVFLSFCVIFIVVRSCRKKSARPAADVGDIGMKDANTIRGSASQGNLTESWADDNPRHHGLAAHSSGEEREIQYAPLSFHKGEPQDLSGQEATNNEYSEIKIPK
T9 sequence (Q96PQ1 other isoform, or with tags, fused parts or gaps limits assumed): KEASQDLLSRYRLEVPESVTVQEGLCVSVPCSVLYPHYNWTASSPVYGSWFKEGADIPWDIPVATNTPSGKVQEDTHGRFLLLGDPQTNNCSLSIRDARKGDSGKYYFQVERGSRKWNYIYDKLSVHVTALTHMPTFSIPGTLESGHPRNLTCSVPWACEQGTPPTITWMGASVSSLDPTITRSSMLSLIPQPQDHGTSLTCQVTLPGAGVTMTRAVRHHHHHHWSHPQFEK
T8 sequence (chain, as listed by the source limits assumed): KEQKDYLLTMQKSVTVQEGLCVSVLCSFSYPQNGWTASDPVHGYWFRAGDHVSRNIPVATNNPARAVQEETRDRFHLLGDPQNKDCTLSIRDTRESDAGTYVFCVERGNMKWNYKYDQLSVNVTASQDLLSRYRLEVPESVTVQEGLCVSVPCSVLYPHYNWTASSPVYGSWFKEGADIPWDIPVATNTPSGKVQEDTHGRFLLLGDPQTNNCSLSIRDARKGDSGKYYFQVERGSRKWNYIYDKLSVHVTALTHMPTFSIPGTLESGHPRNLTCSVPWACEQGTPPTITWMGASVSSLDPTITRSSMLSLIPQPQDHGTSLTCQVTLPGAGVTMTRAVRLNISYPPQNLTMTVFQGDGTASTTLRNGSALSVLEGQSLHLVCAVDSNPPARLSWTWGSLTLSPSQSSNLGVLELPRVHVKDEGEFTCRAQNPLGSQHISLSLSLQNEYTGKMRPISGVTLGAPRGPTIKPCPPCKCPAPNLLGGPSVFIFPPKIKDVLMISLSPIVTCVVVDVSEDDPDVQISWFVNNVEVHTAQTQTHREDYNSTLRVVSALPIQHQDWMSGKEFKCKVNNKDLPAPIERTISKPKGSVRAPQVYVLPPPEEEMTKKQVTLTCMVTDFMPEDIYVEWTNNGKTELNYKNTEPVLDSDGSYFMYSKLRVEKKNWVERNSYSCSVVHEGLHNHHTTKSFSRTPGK
T1 sequence (Q9Y336 18-348): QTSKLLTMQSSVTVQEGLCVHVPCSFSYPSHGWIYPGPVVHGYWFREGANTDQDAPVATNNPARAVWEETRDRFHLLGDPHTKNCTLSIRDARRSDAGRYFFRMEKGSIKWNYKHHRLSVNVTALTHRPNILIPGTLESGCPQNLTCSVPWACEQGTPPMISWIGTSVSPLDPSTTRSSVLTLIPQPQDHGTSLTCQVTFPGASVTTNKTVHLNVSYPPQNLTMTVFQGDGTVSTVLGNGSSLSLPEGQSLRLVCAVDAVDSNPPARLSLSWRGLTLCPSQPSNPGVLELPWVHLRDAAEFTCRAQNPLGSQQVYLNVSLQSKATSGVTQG
T4 sequence (chain, as listed by the source limits assumed): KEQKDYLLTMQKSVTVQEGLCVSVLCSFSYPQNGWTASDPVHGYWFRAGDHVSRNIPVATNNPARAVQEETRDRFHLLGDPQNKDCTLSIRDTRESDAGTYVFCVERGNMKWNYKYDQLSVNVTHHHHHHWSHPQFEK

B1: S0023 (antibody, V domains shown)
VH: EVQLLESGGGLVQPGGSLRLSCAASGFTFSTFAMSWVRQAPGKGLEWVSTISGGGDSTYYADSVKGRFTISRDNSKNMMSLQMNSLRAVDTAVYYCVKGGGDEYFYYGMDVWGQGTTVTVSS
VL: DIQMTQSPSSLSASVGDRVTITCRASQGIRNDLGWYQQKPGKAPKRLIYSASSLQSGVPSRFSGSGSGTEFTLTISSLQPEDFATYYCLQHNSYPYTFGQGTPLDIKR
notes: human variable domains with mouse constant regions (Trianni mouse hybridoma)
A450 [1]: 0.05
A450 [2]: 0.05
binding result (S12-C2): no binding (tested: A450 0.07)
binding result (S12-V1): no binding (tested: A450 0.07)
MFI [3]: 2.8
MFI [4]: 2.1
MFI [5]: 3

B2: S0042 (antibody, V domains shown)
VH: QVQLVQSGTEVKKPGASVKVSCKVSGYTLSDLSIHWVRQAPGKGLEWMGGFEPEDGEIIYAQKFQGRVIMTEDTSTDTAYMKLSSLRSEDTAVYYCATDKRYFDWLLSGFDYWGQGTLVTVSS
VL: DIQLTQSPSFLSASVGDRVTITCRASQGISSYLAWYQQKPGKAPKLLIFAASTLQSGVPSRFSGSGSGTEFTLTISSLQPEDFATYYCQRLHSYPRTFGQGTKVEIKRA
notes: as for B1
A450 [6]: 1.99
A450 [1]: 0.05
A450 [2]: 0.06
binding result (S12-C2): no binding (tested: A450 0.07)
binding result (S12-V2C1): no binding (tested: A450 0.07)
A450 (S12-V1): 0.1
MFI [3]: 5.3
MFI [4]: 3.9
MFI [5]: 2.3

B3: S0102 (antibody, V domains shown)
VH: QVQLVESGGGVVQPGRSLRLSCAASGFTFSSYGMHWVRQAPGKGLEWVAVISYDGSNKYYTDSVKGRFTISRDNSKNTLYLQMNSLRAEDTAVYYCARGGYYGSGSLDYWGQGTLVTVSS
VL: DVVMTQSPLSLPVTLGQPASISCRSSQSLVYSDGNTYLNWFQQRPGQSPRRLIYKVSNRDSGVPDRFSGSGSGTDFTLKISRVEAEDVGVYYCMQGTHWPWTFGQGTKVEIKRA
notes: human variable domains with mouse constant regions (Trianni mouse hybridoma); also called S0102 anti-Siglec12 antibody
A450 [6]: 3.34
A450 [1]: 0.06
A450 [2]: 0.07
A450 (S12-C2): 0.08
A450 (S12-V2C1): 1.65
binding result (S12-V1): no binding (tested: A450 0.07)
MFI [3]: 7

B4: S0057 (antibody, V domains shown)
VH: QGQLVQSGAEVKKPGASVKVSCKASGYTFNNYGISWVRQAPGQGLEWMGWISAYNGFTRSTQKFQGRVTLTTDTSTSTAHMELRSLRSDDTAAYYCARDGGDGFDPWGQGTLVTVSS
VL: EIVLTQSPATLSLSPGERATLSCRASQSVSSFLAWYQQKPGQAPRLLIFDASNRATGIPARFSGSGSGTDFTLTISSLEPEDFAVYYCQQRSNWITFGQGTRLEIKRA
notes: human variable domains with mouse constant regions (Trianni mouse hybridoma); also called S0057 whole antibody
A450 [6]: 2.64
A450 [1]: 0.08
A450 [2]: 0.07
binding result (S12-C2): no binding (tested: A450 0.07)
A450 (S12-V2C1): 0.62
binding result (S12-V1): no binding (tested: A450 0.07)
MFI [3]: 6.3
MFI [4]: 2.8
MFI [5]: 1.3
binding result [7]: no binding (tested: A450>0.09 (so in the source))

B5: S0040 (antibody, V domains shown)
VH: QVQLVQSGAEVKKPGASVKVSCKASGYTFTSYDINWVRQATGQGLEWMGWMNPNSGNTGYAQNFQGRVTMTRNTSINTAYMELSSLRSEDTAVYYCTRGGPTLVRGVIIRDAFDFWGQGTMVTVSS
VL: EIVMTQSPATLSVSPGERATLSCRASQSVSNSFAWYQQKPGQAPRLLIYGAFTRATGIPARFSGSGSGTEFTLTISSLQSEDFAVYYCQQYKTWPLTFGGGTKVEIKR
notes: as for B1
A450 [1]: 0.05
A450 [2]: 0.05
binding result (S12-V2C1): no binding (tested: A450 0.07)
binding result (S12-V1): no binding (tested: A450 0.07)

B6: S0103 (antibody, V domains shown)
VH: QVQLVQSGAEVKKPGASVKVSCKASGYTFTSYDINWVRQATGQGLEWMGWMNPNSGNTGYAQNFQGRVTMTRDTSVNTAYMELSSLRSEDTAVYYCARGGPNLVRGVIIRDAFDFWGQGTMVTVSS
VL: EIVMTQSPATLSVSPGERATLSCRASQSVSNSFAWYQQKPGQAPRLLIYGAFTRATGIPARFSGSGSGIEFTLTISSLQSEDFAVYYCQQYKTWPLTFGGGTKVEIKR
notes: as for B1
A450 [1]: 0.05
A450 [2]: 0.06
binding result (S12-V2C1): no binding (tested: A450 0.07)
binding result (S12-V1): no binding (tested: A450 0.07)
